Where no end group is shown, it is not given here. [ ]: non-standard residue; d: D form. Ac3c = NC1(C(=O)O)CC1
Tests used:
Human GLP-1 receptor = Human GLP-1 receptor (human, UniProt P43220 24-463); assay: cell-based or functional assay
Human glucagon receptor = Human glucagon receptor (human, UniProt P47871 26-477); assay: cell-based or functional assay

Chain of Human GLP-1 receptor (P43220 24-463): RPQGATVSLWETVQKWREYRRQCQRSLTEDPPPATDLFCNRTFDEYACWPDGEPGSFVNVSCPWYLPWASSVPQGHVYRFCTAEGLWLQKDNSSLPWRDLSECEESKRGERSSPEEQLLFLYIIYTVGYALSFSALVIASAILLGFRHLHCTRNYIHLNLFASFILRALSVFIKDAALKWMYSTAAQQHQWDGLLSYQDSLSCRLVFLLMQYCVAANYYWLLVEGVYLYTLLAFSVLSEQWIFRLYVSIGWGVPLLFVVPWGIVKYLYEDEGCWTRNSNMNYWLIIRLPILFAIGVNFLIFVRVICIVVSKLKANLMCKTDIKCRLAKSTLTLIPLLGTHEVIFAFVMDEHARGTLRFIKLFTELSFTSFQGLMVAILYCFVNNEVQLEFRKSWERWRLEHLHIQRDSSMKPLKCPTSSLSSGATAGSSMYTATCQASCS

Row | Binder | cAMP release, % activity with respect to control; test compound 1 nM (Human GLP-1 receptor) [%] | cAMP release, % activity with respect to control; test compound 10 nM (Human GLP-1 receptor) [%] | cAMP release, % activity with respect to control; test compound 100 nM (Human GLP-1 receptor) [%] | cAMP release, % activity with respect to control; test compound 1 µM (Human GLP-1 receptor) [%] | cAMP release, % activity with respect to control; test compound 10 µM (Human GLP-1 receptor) [%] | cAMP production with saturated glucagon peptide; test compound 1 nM (Human glucagon receptor) [pmol/ml/µg prt] | cAMP production with saturated glucagon peptide; test compound 10 nM (Human glucagon receptor) [pmol/ml/µg prt] | cAMP production with saturated glucagon peptide; test compound 100 nM (Human glucagon receptor) [pmol/ml/µg prt] | cAMP production with saturated glucagon peptide; test compound 10 µM (Human glucagon receptor) [pmol/ml/µg prt] | cAMP production with saturated glucagon peptide; test compound '1 nM' (Human glucagon receptor) [pmol/ml/µg prt]
1 | H[Ac3c]QGTFTSD[Bip(OMe)][Bip(2Me)] [Seq. ID. No. 17: H-(ACP)-QGTFTSD-Bip(OMe)-Bip(2Me)] | 78 | 99 | 99 | 99 | 99 | 2 | 0 | 0 | 0 | 0
2 | H[Ac3c]QGTFTSD[Bip(OMe)][Bip(Pyr)] [Seq. ID. No. 18: H-(ACP)-QGTFTSD-Bip(OMe)-Bip(Pyr)] | 86 | 99 | 99 | 99 | 99 | 0 | 0 | 0 | 0 | 0
